For one substance, IC50 of TGFβ1 activity in HEK-Blue TGFβ cells results are on record in patent US20230398151A1.

Where two headings read alike, the source gives them in different places.

Assay [1] has as its target TGFβ1 (R&D systems) (UniProt P01137). As to the kind of experiment: cell-based or functional assay.
The target is the same in assay [2]. As to the kind of experiment: cell-based or functional assay. This is another data set of the same source.

Sequence of TGFβ1 (R&D systems) (P01137 279-390 limits assumed): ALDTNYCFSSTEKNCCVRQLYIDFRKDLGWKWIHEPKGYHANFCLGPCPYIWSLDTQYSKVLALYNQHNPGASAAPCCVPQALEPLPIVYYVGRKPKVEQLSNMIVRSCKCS

In the case of “TGFR-Fc (R&D Systems) (from UniProt P37173 24-159) (Fc fusion)”, the IC50 of TGFβ1 activity in HEK-Blue TGFβ cells turned out to be 0.461 nM in assay [1] and 0.559 nM in assay [2].
